Data on 25 molecules can be found in article PMC8168426 (ACS chemical biology, 2020).

Read-outs that look alike come from different tables or passages of the source. Ends that are not written are not given here. * marks the point of attachment. NHCH2CH2(5-OH-indol-3-yl) = Oc1ccc2[nH]cc(CCN*)c2c1; fluorescein = fluorescein label (C-terminal); Me3 = trimethyl (trimethyl-lysine); Me2 = dimethyl (dimethyl-lysine) Where only a bound is given, the exact number is not on record here.

One experiment relates to PHD1 domain of KDM5A. As to conditions: result in words; cited from earlier work.
Experiment [1] has as its target T1, PHD1^287–347-KDAC8–6xHis fusion construct (UniProt P29375 287-347).
T1 sequence (looked up): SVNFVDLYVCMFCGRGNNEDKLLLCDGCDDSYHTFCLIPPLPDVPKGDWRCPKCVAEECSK
The experiment can be described thus: PI-SAMDI.

The target in experiment [2] is T2, GST-PHD1 (S287–K347) of histone demethylase KDM5A (UniProt P29375 287-347).
T2 sequence (looked up): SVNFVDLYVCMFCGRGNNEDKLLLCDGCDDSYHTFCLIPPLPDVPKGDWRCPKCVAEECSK
The experiment in a line: fluorescence polarisation.

The target of experiment [3] is T1, PHD1^287–347-KDAC8–6xHis fusion …. The experiment in a line: PI-SAMDI. This is another data set of the same source.
The target of experiment [4] is T2, GST-PHD1 (S287–K347) of histone …. The experiment can be described thus: fluorescence polarisation. The source holds these as a separate data set. On the technique in general: Fluorescence polarisation rises when a labelled molecule tumbles more slowly, as on binding a larger partner.

Take “N-terminally acetylated H3: N-terminally acetylated H3 12-mer peptide (Ac-ARTKQTARKSGC)”: the “Binding to PHD1 as previously established” value (shortened to “Binding to PHD1”) with PHD1 domain of KDM5A is “not bind PHD1”.

Take “H3K9me3: well-characterized H3 12-mer ligand bearing K9me3 (ARTKQTARKSGC; trimethyl-lysine at 9 (H3K9me3)) [Ligand H3K9me3]”: the “Binding to PHD1” value in the experiment on PHD1 domain of KDM5A is “does not impact PHD1-H3 association”.

With “H3 R2A: well-characterized H3 12-mer ligand with R2A mutation (AATKQTARKSGC)”, the “Binding to PHD1” value with PHD1 domain of KDM5A is “strongly reduces binding”.

B1: H3 Q5S 6-mer ligand (ARXKZC with X = T, Z = S) (peptide)
peptide: ARTKSC
Turning to B1, in experiment [1], the binding result was “binds”.

B2: H3 peptide (1–10) carrying a C-terminal fluorescein label (peptide, UniProt P68431 2-11, looked up)
peptide: ARTKQTARKS-fluorescein
Take B2: the binding result in experiment [2] is “binds”.

B3: H3 Q5Y 12-mer ligand (peptide)
peptide: ARTKYTARKSGC
As to B3, the binding result in experiment [3] is listed as “binds”.

B4: H3 Q5A 10-mer peptide (peptide, UniProt P68431 2-11, looked up)
peptide: ARTKATARKS
The term Ki denotes a measure of affinity in units of concentration, obtained from inhibition or displacement. The molecule B4 showed an inhibitory constant (Ki) in experiment [4] of 0.75 µM.

B5: H3 T3Y 10-mer peptide (peptide, UniProt P68431 2-11, looked up)
peptide: ARYKQTARKS
In experiment [4], B5 came in with a Ki of more than 100 µM.

B6: H3 T3A 10-mer peptide (peptide, UniProt P68431 2-11, looked up)
peptide: ARAKQTARKS
As to B6, in experiment [4], the Ki is more than 100 µM.

B7: H3 T3Y Q5Y 10-mer peptide (peptide, UniProt P68431 2-11, looked up)
peptide: ARYKYTARKS
In experiment [4], B7 came in with a Ki of more than 100 µM.

B8: H3 T3D 10-mer peptide (peptide, UniProt P68431 2-11, looked up)
peptide: ARDKQTARKS
Consider B8, for which the Ki in experiment [4] was more than 100 µM.

B9: H3 T3F 10-mer peptide (peptide, UniProt P68431 2-11, looked up)
peptide: ARFKQTARKS
Turning to B9, the Ki in experiment [4] is more than 100 µM.

B10: Q5-serotonylated H3 12-mer ligand (peptide)
peptide: ARTKQ(NHCH2CH2(5-OH-indol-3-yl))TARKSGC
modifications: not fully specified (C-terminus)
Turning to B10, the binding result in experiment [2] and in experiment [3] was “binds” each time.

B11: H3 T3Y Q5R 6-mer ligand (ARXKZC with X = Y, Z = R) (peptide)
peptide: ARYKRC
As to B11, in experiment [1], the binding result is on record as “binds”.

B12: H3K4me1 12-mer ligand (peptide)
peptide: ARTK(Me)QTARKSGC
modifications: not fully specified (C-terminus)
For B12, the binding result in experiment [3] is recorded as “binds”.

B13: H3 Q5E 12-mer ligand (peptide)
peptide: ARTKETARKSGC
Turning to B13, the binding result in experiment [3] is recorded as “binds”.

B14: H3K9me3 12-mer ligand (peptide)
peptide: ARTKQTARKSGC
modifications: not fully specified; trimethyl-lysine at 9 (H3K9me3)
With B14, the binding result in experiment [3] was “binds”.

B15: H3K4me2 12-mer ligand (peptide)
peptide: ARTK(Me2)QTARKSGC
modifications: not fully specified (C-terminus)
Take B15: the binding result in experiment [3] is “binds”.

B16: H3 T3V Q5R 6-mer ligand (ARXKZC with X = V, Z = R) (peptide)
peptide: ARVKRC
Regarding B16, the binding result in experiment [1] is “binds”.

B17: H3 T3V Q5W 6-mer ligand (ARXKZC with X = V, Z = W) (peptide)
peptide: ARVKWC
On to B17, for which, in experiment [1], the binding result was “binds”.

B18: unmodified H3 12-mer ligand (first 10 N-terminal residues of H3 and a GC moiety) (peptide)
peptide: ARTKQTARKSGC
modifications: not fully specified (C-terminus)
Take B18: the binding result in experiment [2] and in experiment [3] was “binds” in each case.

B19: H3K4me3 12-mer ligand (peptide)
peptide: ARTK(Me3)QTARKSGC
modifications: not fully specified (C-terminus)
Turning to B19, the binding result in experiment [3] is recorded as “binds”.

B20: H3 T3Y Q5Y 6-mer ligand (ARXKZC with X = Y, Z = Y) (peptide)
peptide: ARYKYC
Turning to B20, the binding result in experiment [1] is “binds”.

B21: H3 T3Y 6-mer ligand (ARXKZC with X = Y, Z = Q) (peptide)
peptide: ARYKQC
With B21, the binding result in experiment [1] is “binds”.

B22: H3 Q5R 6-mer ligand (ARXKZC with X = T, Z = R) (peptide)
peptide: ARTKRC
On to B22, for which the binding result in experiment [1] was “binds”.
